Source: PMC5297747

How the values were obtained:
[1] = target: bovine α-chymotrypsin (bovine)
[2] = target: bovine α-chymotrypsin (bovine); assay: progress curve of protease inhibition; 40 °C; buffer B (100 mM HEPES-NaOH pH 7.5, 200 mM NaCl, 10 mM CaCl2, 0.01% triton X-100, 0.1% glycerol); 1 mM Suc-AAPF-pNA or MeO-SucAAPV-pNA as substrate; various concentrations of Pnserpin; absorption at 410 nm; kass = kunc × (1 + [S]/KM)

Question: For “Pnserpin (from UniProt B1YBN4 1-393) (natural protein)”, which stoichiometry of inhibition (SI), incubation at 20 °C; residual protease activity [1] is on record?
Answer: 9.49

Question: And the stoichiometry of inhibition (SI), incubation at 30 °C; residual protease activity [1]?
Answer: 5.8

Question: And the stoichiometry of inhibition (SI), incubation at 40 °C; residual protease activity [1]?
Answer: 4.76

Question: What about the stoichiometry of inhibition (SI), incubation at 50 °C; residual protease activity [1] of the same substance?
Answer: 2.21

Question: And the kon [2]?
Answer: 24600 M⁻¹ s⁻¹
